# From paper PMC5037378
# Target: Aggrecan (UniProt P13608)
# Test: solid phase binding assay (ELISA-type, HRP anti-human IgG Fc, OPD colorimetric)
# Details: PTPσ-Fc 80 nM, wells coated with aggrecan 10 μg/ml, read off a plot
# Chain of UniProt P13608 (P13608 17-2364): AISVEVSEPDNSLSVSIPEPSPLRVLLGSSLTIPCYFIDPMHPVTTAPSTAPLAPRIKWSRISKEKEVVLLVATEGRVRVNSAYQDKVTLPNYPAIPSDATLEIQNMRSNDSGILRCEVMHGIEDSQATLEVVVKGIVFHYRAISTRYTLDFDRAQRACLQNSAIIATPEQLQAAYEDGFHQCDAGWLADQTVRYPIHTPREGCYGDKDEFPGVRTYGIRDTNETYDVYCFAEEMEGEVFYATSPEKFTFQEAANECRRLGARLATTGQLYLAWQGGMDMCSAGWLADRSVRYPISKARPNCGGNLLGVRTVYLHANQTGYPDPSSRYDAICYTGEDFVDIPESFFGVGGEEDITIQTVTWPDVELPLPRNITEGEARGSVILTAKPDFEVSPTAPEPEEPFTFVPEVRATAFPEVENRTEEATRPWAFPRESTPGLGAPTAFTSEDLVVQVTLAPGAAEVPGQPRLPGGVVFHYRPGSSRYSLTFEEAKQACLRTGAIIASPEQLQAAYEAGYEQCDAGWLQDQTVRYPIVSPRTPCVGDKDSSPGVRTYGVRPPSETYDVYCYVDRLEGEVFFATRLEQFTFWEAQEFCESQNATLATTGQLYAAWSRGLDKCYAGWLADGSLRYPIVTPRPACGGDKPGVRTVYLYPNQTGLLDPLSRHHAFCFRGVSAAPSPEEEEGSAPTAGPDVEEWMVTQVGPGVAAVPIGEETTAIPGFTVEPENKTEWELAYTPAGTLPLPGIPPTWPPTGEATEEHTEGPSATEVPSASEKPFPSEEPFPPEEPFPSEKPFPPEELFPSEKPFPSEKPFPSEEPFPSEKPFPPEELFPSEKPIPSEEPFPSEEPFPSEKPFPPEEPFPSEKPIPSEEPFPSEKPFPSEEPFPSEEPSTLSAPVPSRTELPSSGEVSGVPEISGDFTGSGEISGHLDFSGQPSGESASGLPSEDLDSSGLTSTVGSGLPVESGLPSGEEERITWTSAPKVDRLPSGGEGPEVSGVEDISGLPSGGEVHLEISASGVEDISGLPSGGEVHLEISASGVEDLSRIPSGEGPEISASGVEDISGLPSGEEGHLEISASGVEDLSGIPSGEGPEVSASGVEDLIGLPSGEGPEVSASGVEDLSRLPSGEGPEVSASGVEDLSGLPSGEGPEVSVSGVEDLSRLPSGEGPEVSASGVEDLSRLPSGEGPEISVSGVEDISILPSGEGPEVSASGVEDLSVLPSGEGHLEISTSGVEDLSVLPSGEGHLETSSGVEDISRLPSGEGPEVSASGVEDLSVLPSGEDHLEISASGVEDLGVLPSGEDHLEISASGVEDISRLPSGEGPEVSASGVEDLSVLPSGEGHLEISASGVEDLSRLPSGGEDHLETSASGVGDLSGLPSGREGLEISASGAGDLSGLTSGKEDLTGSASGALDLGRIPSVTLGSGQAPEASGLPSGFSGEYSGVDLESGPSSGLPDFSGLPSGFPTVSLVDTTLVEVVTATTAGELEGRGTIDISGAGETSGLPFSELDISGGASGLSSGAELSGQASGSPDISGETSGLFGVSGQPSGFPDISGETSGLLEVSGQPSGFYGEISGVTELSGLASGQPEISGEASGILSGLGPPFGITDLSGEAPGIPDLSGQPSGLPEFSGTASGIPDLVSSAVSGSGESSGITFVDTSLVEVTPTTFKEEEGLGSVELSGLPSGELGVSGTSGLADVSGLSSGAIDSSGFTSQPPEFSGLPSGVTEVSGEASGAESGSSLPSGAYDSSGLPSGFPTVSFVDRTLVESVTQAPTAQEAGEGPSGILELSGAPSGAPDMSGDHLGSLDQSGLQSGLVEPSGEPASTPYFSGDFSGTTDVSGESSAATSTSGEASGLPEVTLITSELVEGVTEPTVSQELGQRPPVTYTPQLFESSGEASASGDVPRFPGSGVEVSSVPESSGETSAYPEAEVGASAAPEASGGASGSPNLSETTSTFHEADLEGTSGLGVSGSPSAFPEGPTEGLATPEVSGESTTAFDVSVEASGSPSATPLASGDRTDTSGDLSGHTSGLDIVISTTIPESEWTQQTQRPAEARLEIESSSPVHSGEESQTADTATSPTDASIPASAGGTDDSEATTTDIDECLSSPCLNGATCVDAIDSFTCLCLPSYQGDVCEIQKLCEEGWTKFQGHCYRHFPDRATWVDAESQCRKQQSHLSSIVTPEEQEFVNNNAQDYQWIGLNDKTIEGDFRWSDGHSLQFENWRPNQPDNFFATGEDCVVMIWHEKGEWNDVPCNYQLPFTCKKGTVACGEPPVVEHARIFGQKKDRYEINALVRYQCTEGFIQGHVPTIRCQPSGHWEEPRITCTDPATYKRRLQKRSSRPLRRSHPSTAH
substance,measurement,setting,value
"PTPσ (protein tyrosine phosphatase sigma) N-terminal extracellular part with the three Ig domains, Fc-tagged, wild type (from UniProt B0V2N1) PTPσ mutant (lacks the CS binding site; substitutions not printed)",response,"HB-GAM 0 nM, parent: est. 1.2",0.081 A450
same,response,"HB-GAM 10 nM, parent: est. 0.88",0.085 A450
same,response,"HB-GAM 20 nM, parent: est. 0.64",0.085 A450
same,response,"HB-GAM 40 nM, parent: est. 0.43",0.084 A450
same,response,"HB-GAM 80 nM, parent: est. 0.31",0.083 A450
same,response,"HB-GAM 160 nM, parent: est. 0.25",0.083 A450
same,response,"HB-GAM 320 nM, parent: est. 0.23",0.084 A450
